Consider two molecules from PMC3250484, “Molecular Networks in FGF Signaling: Flotillin-1 and Cbl-Associated Protein Compete for the Binding to Fibroblast Growth Factor Receptor Substrate 2” (PLoS ONE, 2012).

The target in one experiment is T1, FL Flot-1-GST (Rattus norvegicus (Rat), UniProt Q9Z1E1-1).
T1 chain: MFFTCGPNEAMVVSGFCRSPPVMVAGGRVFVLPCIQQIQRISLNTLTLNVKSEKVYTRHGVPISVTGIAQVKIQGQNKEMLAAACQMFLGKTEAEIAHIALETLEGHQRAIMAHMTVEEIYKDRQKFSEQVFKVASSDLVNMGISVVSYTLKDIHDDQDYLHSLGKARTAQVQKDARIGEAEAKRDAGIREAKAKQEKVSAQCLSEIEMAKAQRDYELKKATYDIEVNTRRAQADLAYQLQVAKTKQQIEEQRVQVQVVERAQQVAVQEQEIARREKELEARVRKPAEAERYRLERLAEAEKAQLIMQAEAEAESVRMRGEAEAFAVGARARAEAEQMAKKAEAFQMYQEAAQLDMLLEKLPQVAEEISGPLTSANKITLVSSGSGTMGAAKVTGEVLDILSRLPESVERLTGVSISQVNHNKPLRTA
Briefly: GST pulldown.

The next experiment concerns the target T2, Flot-1-CT-GST (Rattus norvegicus (Rat), UniProt Q9Z1E1).
T2 chain: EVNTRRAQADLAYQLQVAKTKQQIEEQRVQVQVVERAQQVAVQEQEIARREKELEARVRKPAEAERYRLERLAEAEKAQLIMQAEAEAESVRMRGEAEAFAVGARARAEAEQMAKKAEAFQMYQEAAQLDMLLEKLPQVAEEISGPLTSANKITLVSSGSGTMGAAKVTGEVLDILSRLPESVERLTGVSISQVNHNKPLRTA
The experiment is described as follows: GST pulldown.

For another experiment, the target named is T3, FRS2-His (UniProt Q8WU20 1-508).
T3 construct: called one of the 'FL proteins' in the results; The vector pSCherry2 (Eurogentec) may add a Cherry carrier besides the His tag (surmise); also called His-tagged FRS2; purified FRS2-His; source: E. coli SE1, purified (Ni-NTA, dialysis)
T3 sequence (looked up): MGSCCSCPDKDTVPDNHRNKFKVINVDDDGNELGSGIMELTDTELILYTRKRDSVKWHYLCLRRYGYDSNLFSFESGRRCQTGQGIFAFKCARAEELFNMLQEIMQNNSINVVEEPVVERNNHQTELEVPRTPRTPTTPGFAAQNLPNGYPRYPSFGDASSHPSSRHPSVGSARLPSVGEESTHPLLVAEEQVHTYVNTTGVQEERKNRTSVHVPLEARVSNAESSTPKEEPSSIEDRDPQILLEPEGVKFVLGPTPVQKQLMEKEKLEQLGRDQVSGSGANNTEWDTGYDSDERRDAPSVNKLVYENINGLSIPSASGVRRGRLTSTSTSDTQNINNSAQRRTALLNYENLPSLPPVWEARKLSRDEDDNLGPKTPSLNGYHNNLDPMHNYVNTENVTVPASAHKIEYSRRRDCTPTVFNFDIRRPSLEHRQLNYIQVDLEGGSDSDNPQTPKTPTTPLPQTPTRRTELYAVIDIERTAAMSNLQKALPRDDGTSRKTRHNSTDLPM
Briefly: pull-down; GST fusion immobilised on sepharose beads, purified FRS2-His in solution; 5 µg of the purified proteins, on ice 3 h; wash 50 mM Tris-HCl pH 7.5, 150 mM NaCl, 1 mM EDTA, 1 mM DTT, 0.01% Triton X-100; anti-His blot. The conditions noted are these: both partners purified.

B1: FRS2-His (protein)
chain: T3 sequence (looked up)
Turning to B1, the binding result with FL Flot-1-GST and in the experiment with Flot-1-CT-GST was “binds” in each case.

B2: FL Flot-1-GST (natural protein, rat, UniProt Q9Z1E1-1 1-428, looked up)
chain: T1 chain
notes: Rat flotillin-1 in pET41a, full length; pET41a adds further N-terminal tags besides GST (surmise from the vector); also called flot-1-FL-GST
On to B2, for which the binding result with FRS2-His is “binds”.
